In patent US20250340902A1, “GENE THERAPY FOR BVES-RELATED DISORDERS” (OHIO STATE INNOVATION FOUNDATION, priority 2022, published 2025):

Key:
Assay in all cases: anti-HA co-IP from muscle, MS; CTRL 0
[1] = target: 40S ribosomal protein S27 (Mus musculus) (UniProt Q6ZWU9)
[2] = target: 60S ribosomal protein L15 (Mus musculus) (UniProt Q9CZM2)
[3] = target: ATP-binding cassette sub-family C member 9 (Mus musculus) (UniProt P70170)
[4] = target: ATPase family AAA domain-containing protein 3 (Mus musculus) (UniProt Q925I1)
[5] = target: Alanine--tRNA ligase, cytoplasmic (Mus musculus) (UniProt Q8BGQ7)
Ankyrin-1 (Mus musculus) = Ankyrin-1 (Mus musculus) (UniProt Q02357)
[6] = target: Anoctamin-5 (Mus musculus) (UniProt Q75UR0)
[7] = target: Barrier-to-autointegration factor (Mus musculus) (UniProt O54962)
[8] = target: Beta-sarcoglycan (Mus musculus) (UniProt P82349)
[9] = target: Calcium/calmodulin-dependent protein kinase type II subunit gamma (Mus musculus) (UniProt Q923T9)
[10] = target: Cell cycle progression protein 1 (Mus musculus) (UniProt Q640L3)
[11] = target: Charged multivesicular body protein 4b (Mus musculus) (UniProt Q9D8B3)
[12] = target: Chromatin-remodeling ATPase INO80 (Mus musculus) (UniProt Q6ZPV2)
Cullin-1 (Mus musculus) = Cullin-1 (Mus musculus) (UniProt Q9WTX6)
[13] = target: DnaJ homolog subfamily B member 2 (Mus musculus) (UniProt Q9QYI5)
Dysferlin (Mus musculus) = Dysferlin (Mus musculus) (UniProt Q9ESD7)
Elongin-A (Mus musculus) = Elongin-A (Mus musculus) (UniProt Q8CB77)
[14] = target: Eukaryotic initiation factor 4A-III (Mus musculus) (UniProt Q91VC3)
[15] = target: Ferrochelatase, mitochondrial (Mus musculus) (UniProt P22315)
[16] = target: GTP-binding protein SAR1b (Mus musculus) (UniProt Q9CQC9)
[17] = target: Heterogeneous nuclear ribonucleoprotein H2 (Mus musculus) (UniProt P70333)
[18] = target: Heterogeneous nuclear ribonucleoprotein L (Mus musculus) (UniProt Q8R081)
[19] = target: Heterogeneous nuclear ribonucleoprotein M (Mus musculus) (UniProt Q9D0E1)
[20] = target: Indolethylamine N-methyltransferase (Mus musculus) (UniProt P40936)
[21] = target: LEM domain-containing protein 2 (Mus musculus) (UniProt Q6DVA0)
[22] = target: Multidrug resistance-associated protein 1 (Mus musculus) (UniProt O35379)
Myocilin (Mus musculus) = Myocilin (Mus musculus) (UniProt O70624)
[23] = target: NADH dehydrogenase [ubiquinone] iron-sulfur protein 3, mitochondrial (Mus musculus) (UniProt Q9DCT2)
[24] = target: NADH dehydrogenase [ubiquinone] iron-sulfur protein 6, mitochondrial (Mus musculus) (UniProt P52503)
[25] = target: Nucleolar protein 12 (Mus musculus) (UniProt Q8BG17)
[26] = target: Nucleolar protein of 40 kDa (Mus musculus) (UniProt Q9ESX4)
[27] = target: Proliferation-associated protein 2G4 (Mus musculus) (UniProt P50580)
[28] = target: Protein phosphatase 1 regulatory subunit 3A (Mus musculus) (UniProt Q99MR9)
[29] = target: Ran GTPase-activating protein 1 (Mus musculus) (UniProt P46061)
[30] = target: Sodium/calcium exchanger 3 (Mus musculus) (UniProt S4R2P9)
[31] = target: Sodium/potassium-transporting ATPase subunit alpha-1 (Mus musculus) (UniProt Q8VDN2)
[32] = target: Splicing factor 3A subunit 1 (Mus musculus) (UniProt Q8K4Z5)
Talin-2 (Mus musculus) = Talin-2 (Mus musculus) (UniProt Q71LX4)
[33] = target: U2 small nuclear ribonucleoprotein B″ (Mus musculus) (UniProt Q9CQI7)
Sequence of U2 small nuclear ribonucleoprotein B″ (Mus musculus) (Q9CQI7 whole entry): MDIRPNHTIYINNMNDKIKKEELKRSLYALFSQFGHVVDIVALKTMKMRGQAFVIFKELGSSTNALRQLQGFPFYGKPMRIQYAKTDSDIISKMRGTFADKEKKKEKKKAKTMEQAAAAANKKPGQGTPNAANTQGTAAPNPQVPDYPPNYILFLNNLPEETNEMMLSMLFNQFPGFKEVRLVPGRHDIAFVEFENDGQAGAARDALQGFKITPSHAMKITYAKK

Sequence of human BVES fused with 3xHA tag (Q8NE79 other isoform, or with tags, fused parts or gaps limits assumed): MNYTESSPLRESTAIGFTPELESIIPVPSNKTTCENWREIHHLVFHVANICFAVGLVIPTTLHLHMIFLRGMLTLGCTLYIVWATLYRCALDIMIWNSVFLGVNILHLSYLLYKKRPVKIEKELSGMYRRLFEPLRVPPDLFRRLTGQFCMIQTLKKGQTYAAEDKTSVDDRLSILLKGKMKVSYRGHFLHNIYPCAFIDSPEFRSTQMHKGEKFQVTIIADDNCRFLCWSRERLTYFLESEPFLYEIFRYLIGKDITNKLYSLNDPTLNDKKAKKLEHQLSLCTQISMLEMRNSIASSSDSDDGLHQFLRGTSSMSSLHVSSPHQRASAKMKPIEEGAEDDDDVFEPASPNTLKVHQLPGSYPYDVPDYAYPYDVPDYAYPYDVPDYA
Sequence of Calcium/calmodulin-dependent protein kinase type II subunit gamma (Mus musculus) (Q923T9 whole entry): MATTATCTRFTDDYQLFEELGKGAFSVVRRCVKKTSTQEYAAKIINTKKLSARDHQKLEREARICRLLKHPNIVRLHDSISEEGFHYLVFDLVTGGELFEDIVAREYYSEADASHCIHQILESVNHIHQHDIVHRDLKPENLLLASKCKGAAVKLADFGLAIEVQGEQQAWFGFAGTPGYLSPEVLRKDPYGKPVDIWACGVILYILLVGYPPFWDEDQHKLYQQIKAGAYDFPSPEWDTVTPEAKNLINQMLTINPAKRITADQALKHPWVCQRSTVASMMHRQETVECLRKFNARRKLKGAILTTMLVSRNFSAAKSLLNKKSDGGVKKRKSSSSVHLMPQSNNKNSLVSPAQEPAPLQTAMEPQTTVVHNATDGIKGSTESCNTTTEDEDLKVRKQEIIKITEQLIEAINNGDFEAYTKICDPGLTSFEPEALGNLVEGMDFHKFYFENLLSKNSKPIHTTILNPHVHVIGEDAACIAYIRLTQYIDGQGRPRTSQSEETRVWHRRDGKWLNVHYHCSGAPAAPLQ
Sequence of DnaJ homolog subfamily B member 2 (Mus musculus) (Q9QYI5 2-321 limits assumed): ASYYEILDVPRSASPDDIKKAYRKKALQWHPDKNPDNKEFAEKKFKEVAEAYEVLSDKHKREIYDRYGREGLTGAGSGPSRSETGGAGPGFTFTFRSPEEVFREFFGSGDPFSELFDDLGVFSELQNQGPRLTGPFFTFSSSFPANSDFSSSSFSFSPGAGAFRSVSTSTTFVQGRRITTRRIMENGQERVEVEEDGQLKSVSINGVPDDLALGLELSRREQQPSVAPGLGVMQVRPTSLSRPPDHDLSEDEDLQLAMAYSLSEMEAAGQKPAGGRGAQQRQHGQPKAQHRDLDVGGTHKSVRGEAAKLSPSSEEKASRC
Sequence of GTP-binding protein SAR1b (Mus musculus) (Q9CQC9 whole entry): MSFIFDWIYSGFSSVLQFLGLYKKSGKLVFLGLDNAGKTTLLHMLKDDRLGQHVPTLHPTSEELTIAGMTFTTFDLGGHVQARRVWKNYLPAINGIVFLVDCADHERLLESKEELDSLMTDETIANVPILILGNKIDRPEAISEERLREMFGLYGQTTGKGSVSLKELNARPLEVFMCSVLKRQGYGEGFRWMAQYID
Sequence of Anoctamin-5 (Mus musculus) (Q75UR0 whole entry): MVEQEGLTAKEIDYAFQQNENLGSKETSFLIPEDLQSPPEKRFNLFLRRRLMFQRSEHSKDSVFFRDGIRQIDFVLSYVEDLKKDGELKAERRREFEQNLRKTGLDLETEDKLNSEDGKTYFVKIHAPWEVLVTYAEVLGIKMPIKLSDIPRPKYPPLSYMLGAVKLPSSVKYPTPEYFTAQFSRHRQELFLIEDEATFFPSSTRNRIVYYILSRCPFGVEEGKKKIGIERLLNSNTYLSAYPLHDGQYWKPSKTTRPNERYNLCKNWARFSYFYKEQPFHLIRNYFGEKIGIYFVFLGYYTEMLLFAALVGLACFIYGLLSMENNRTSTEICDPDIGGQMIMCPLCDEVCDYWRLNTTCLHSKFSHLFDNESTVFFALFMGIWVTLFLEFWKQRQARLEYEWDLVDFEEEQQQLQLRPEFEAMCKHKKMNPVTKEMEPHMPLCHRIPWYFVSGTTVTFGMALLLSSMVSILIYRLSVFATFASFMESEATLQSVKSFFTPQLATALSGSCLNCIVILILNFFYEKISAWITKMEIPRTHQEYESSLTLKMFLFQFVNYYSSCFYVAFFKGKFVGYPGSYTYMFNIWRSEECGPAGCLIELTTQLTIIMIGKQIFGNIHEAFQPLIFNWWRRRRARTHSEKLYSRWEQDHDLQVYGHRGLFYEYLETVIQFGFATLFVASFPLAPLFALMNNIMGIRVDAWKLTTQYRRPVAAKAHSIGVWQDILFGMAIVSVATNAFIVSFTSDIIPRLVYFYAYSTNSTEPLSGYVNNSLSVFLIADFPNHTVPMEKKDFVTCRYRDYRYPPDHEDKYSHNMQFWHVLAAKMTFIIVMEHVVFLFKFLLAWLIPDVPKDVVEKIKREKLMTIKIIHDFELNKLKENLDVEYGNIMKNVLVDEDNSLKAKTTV
Sequence of Elongin-A (Mus musculus) (Q8CB77 whole entry): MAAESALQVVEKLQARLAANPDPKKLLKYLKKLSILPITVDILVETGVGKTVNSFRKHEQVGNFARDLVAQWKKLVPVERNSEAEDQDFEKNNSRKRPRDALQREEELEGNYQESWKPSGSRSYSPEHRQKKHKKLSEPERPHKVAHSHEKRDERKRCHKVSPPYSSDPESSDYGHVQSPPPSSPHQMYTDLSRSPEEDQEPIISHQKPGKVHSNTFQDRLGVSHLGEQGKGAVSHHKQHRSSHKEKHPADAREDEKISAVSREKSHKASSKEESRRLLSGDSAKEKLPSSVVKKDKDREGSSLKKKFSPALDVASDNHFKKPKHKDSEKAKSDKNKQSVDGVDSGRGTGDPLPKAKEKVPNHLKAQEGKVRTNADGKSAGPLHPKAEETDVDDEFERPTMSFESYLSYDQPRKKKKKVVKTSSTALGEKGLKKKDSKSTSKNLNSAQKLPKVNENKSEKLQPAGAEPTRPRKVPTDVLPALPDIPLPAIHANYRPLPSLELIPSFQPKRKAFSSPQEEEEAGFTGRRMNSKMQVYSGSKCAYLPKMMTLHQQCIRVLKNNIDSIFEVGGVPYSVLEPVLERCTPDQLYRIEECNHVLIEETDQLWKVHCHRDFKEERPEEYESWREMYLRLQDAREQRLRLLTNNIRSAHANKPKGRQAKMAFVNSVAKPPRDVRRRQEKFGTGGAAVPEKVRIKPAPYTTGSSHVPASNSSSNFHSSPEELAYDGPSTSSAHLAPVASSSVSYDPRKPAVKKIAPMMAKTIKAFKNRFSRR
Sequence of Indolethylamine N-methyltransferase (Mus musculus) (P40936 whole entry, the tested form may be a part): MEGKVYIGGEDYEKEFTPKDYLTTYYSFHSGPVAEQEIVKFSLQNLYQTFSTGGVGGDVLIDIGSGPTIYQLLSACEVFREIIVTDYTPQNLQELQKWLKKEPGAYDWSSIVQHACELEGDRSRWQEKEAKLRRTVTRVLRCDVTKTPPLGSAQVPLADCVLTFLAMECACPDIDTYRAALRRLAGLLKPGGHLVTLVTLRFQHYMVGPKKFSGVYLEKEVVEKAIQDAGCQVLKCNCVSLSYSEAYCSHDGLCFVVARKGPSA
Sequence of Ferrochelatase, mitochondrial (Mus musculus) (P22315 54-422 limits assumed): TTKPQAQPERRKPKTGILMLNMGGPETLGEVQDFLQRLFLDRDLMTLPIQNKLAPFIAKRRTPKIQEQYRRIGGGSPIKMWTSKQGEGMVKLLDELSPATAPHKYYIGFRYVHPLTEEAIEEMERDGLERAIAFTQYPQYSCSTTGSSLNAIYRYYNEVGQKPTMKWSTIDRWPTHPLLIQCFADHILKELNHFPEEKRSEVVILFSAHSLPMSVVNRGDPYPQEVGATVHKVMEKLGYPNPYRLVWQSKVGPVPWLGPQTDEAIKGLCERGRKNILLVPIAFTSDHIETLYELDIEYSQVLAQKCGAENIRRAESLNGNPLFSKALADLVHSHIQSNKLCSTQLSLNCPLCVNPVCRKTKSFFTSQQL
Sequence of Charged multivesicular body protein 4b (Mus musculus) (Q9D8B3 2-224 limits assumed): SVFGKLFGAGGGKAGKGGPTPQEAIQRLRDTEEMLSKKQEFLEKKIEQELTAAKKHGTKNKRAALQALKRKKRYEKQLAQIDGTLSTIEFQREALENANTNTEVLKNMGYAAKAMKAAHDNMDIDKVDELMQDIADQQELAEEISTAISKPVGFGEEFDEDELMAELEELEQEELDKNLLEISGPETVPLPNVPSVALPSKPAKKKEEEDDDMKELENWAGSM
Sequence of NADH dehydrogenase [ubiquinone] iron-sulfur protein 3, mitochondrial (Mus musculus) (Q9DCT2 36-263 limits assumed): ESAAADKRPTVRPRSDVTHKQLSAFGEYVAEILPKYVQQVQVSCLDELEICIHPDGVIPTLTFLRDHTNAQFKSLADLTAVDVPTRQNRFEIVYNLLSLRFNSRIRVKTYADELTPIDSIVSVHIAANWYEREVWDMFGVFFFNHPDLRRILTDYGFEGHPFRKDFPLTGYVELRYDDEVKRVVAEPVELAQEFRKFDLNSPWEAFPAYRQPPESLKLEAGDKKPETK
Sequence of Nucleolar protein 12 (Mus musculus) (Q8BG17 whole entry): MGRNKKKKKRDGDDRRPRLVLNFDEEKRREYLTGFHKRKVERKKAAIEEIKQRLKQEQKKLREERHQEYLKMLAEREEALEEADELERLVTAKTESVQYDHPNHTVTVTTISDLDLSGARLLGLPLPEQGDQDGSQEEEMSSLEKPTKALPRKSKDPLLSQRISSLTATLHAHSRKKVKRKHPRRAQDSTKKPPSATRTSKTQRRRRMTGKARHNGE
Sequence of Barrier-to-autointegration factor (Mus musculus) (O54962 whole entry): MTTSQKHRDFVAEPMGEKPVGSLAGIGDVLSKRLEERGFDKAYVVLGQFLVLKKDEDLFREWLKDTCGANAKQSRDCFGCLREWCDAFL
Sequence of NADH dehydrogenase [ubiquinone] iron-sulfur protein 6, mitochondrial (Mus musculus) (P52503 21-116 limits assumed): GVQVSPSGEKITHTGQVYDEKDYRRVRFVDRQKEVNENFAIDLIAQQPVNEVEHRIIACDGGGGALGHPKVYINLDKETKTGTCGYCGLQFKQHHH

## human BVES fused with 3xHA tag (from UniProt Q8NE79 1-360)
[1]
  AAV9-BVES-HA (IP-MS count): 2
[2]
  AAV9-BVES-HA (IP-MS count): 4
[3]
  AAV9-BVES-HA (IP-MS count): 14
[4]
  AAV9-BVES-HA (IP-MS count): 3
[5]
  AAV9-BVES-HA (IP-MS count): 4
Ankyrin-1 (Mus musculus)
  AAV9-BVES-HA (IP-MS count): 31
[6]
  AAV9-BVES-HA (IP-MS count): 2
[7]
  AAV9-BVES-HA (IP-MS count): 3
[8]
  AAV9-BVES-HA (IP-MS count): 9
[9]
  AAV9-BVES-HA (IP-MS count): 13
[10]
  AAV9-BVES-HA (IP-MS count): 2
[11]
  AAV9-BVES-HA (IP-MS count): 2
[12]
  AAV9-BVES-HA (IP-MS count): 2
Cullin-1 (Mus musculus)
  AAV9-BVES-HA (IP-MS count): 2
[13]
  AAV9-BVES-HA (IP-MS count): 2
Dysferlin (Mus musculus)
  AAV9-BVES-HA (IP-MS count): 12
Elongin-A (Mus musculus)
  AAV9-BVES-HA (IP-MS count): 3
[14]
  AAV9-BVES-HA (IP-MS count): 3
[15]
  AAV9-BVES-HA (IP-MS count): 2
[16]
  AAV9-BVES-HA (IP-MS count): 3
[17]
  AAV9-BVES-HA (IP-MS count): 4
[18]
  AAV9-BVES-HA (IP-MS count): 2
[19]
  AAV9-BVES-HA (IP-MS count): 2
[20]
  AAV9-BVES-HA (IP-MS count): 2
[21]
  AAV9-BVES-HA (IP-MS count): 2
[22]
  AAV9-BVES-HA (IP-MS count): 2
Myocilin (Mus musculus)
  AAV9-BVES-HA (IP-MS count): 2
[23]
  AAV9-BVES-HA (IP-MS count): 4
[24]
  AAV9-BVES-HA (IP-MS count): 2
[25]
  AAV9-BVES-HA (IP-MS count): 2
[26]
  AAV9-BVES-HA (IP-MS count): 2
[27]
  AAV9-BVES-HA (IP-MS count): 7
[28]
  AAV9-BVES-HA (IP-MS count): 12
[29]
  AAV9-BVES-HA (IP-MS count): 2
[30]
  AAV9-BVES-HA (IP-MS count): 3
[31]
  AAV9-BVES-HA (IP-MS count): 12
[32]
  AAV9-BVES-HA (IP-MS count): 4
Talin-2 (Mus musculus)
  AAV9-BVES-HA (IP-MS count): 3
[33]
  AAV9-BVES-HA (IP-MS count): 2
